Laboratory results published in publication PMC9234716, “Comparative analysis defines a broader FMRFamide-gated sodium channel family and determinants of neuropeptide sensitivity” (The Journal of Biological Chemistry, 2022).
Numbering of substitutions follows the chain as printed. Where no end group is shown, it is not given here.

Tests used:
[1] = system: Malacoceros WaNaC^ON156824; assay: Two-electrode voltage clamp of Xenopus oocytes expressing Malacoceros WaNaC ON156824; type: cell-based, Malacoceros fuliginosus; settings: WT channel, n = 9, mean ± SEM, read-out: KWGGNSRMWa EC50
[2] = molecular target: T1, rat ASIC1a (Rattus norvegicus, UniProt P55926); assay: FRRFa enhancement of pH-gated currents at oocytes expressing WT or mutant rat ASIC1a; type: cell-based; settings: WT; 50 μM FRRFa; pH 5.3 after preincubation in desensitizing pH; n = 7
T1 construct: R. norvegicus NP_077068.1 (rat ASIC1a) and respective mutants; expressed in transfected cells; host or cells: Xenopus laevis oocytes (cRNA injection)
T1 sequence (P55926 1-526): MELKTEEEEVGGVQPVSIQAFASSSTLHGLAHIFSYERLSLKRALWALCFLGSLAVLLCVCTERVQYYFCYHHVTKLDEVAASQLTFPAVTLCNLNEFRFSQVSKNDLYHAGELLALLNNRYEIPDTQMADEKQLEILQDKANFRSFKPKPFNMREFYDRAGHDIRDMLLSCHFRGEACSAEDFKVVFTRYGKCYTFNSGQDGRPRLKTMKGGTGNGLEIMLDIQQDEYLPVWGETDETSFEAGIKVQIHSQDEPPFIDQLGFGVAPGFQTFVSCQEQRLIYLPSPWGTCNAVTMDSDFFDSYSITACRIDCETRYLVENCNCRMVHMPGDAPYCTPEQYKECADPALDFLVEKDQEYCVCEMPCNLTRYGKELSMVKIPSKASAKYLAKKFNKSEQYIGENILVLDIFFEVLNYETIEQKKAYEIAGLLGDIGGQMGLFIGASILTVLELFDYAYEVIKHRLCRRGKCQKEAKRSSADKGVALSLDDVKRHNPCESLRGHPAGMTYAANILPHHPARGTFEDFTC
Method: (§1) Figure 6 Determinants of FRRFa modulation of rat ASIC1a.A, pH 5.3 (filled black bars)-gated currents after preincubation in desensitizing pH (unfilled bars) alone or in 50 μM FRRFa (blue bars) at oocytes expressing WT or mutant rat ASIC1a (rASIC1a). The scale bars represent x, 10 s; y, 200 nA. Desensitizing pH described in Figure S4. B, mean (± SEM, n = 4–7) enhancement (currentb/currenta from (A)) of desensitized current amplitude by 50 μM FRRFa at indicated rat ASIC1a mutants. ASIC, acid-sensing ion channel.
(§2) Figure S4. Measurement of steady state desensitization and peptide modulation of rat ASIC1a mutants. (A) Left, example currents at an oocyte expressing a rat ASIC1a mutant in response to decreasing pH. Right, mean (± SEM, n = 3-4) normalized currents in response to decreasing pH. (B) Left, example currents at an oocyte expressing a rat ASIC1a mutant in response to pH 5.3 after pre-incubation in decreasing pH. Right, mean (± SEM, n = 3-4) normalized currents in response to decreasing pre-incubation pH. This established that pH 6.9 was strongly desensitizing for WT and most mutants, and pH 6.7 was strongly desensitizing for mutants K246A and V377A. (C) Example experiment showing: current response to activating pH (5.3) after pre-incubation in resting pH 7.8; current response ("a") to activating pH after 20 s pre-incubation in desensitizing pH (6.7 for this mutant); and current response ("b") to activating pH after 20 s pre-incubation in desensitizing pH plus 50 μM FRRFa. Dividing current amplitude "b" by that of "a" gives fold-enhancement by FRRFa in Fig. 6B. All scale bars: x, 10 s; y, 10 μA.

[3] = molecular target: T2, rat ASIC1a (Rattus norvegicus, UniProt P55926, K246A); assay: as above; type: cell-based; settings: K246A mutant; 50 μM FRRFa; n = 6
T2 construct: R. norvegicus NP_077068.1 (rat ASIC1a) and respective mutants; expressed in transfected cells; host or cells: Xenopus laevis oocytes (cRNA injection)
T2 sequence (P55926 1-526 K246A): T1 sequence (P55926 1-526) with K246A
Method: as §1, §2

[4] = molecular target: T3, rat ASIC1a (Rattus norvegicus, UniProt P55926, S274A); assay: as above; type: cell-based; settings: S274A mutant; 50 μM FRRFa; n = 6
T3 construct: R. norvegicus NP_077068.1 (rat ASIC1a) and respective mutants; expressed in transfected cells; host or cells: Xenopus laevis oocytes (cRNA injection)
T3 sequence (P55926 1-526 S274A): T1 sequence (P55926 1-526) with S274A
Method: as §1, §2

[5] = system: Capitella WaNaC^212912; assay: Two-electrode voltage clamp of Xenopus oocytes expressing Capitella WaNaC 212912; type: cell-based, Capitella teleta
Method: (§3) Defolliculated stage V/VI oocytes from X. laevis were commercially acquired (Ecocyte Bioscience) and stored at 18 °C in 50% (in water) Leibovitz’s L-15 medium (Gibco) supplemented with additional 0.25 mg/ml gentamicin, 1 mM L-glutamine, and 15 mM Hepes, pH 7.6. Oocytes were injected with 2 ng cRNA (WT or mutant Aplysia FaNaC) and 2 to 60 ng cRNA (WT C. gigas XM_011442205.2, O. bimaculoides XM_014930938.1, L. gigantea XM_009055314.1_160261, P. fucata pfu_aug2.0_4392.1_09318.t1, C. teleta Capca1_207658, Capca1_52833, Capca1_185559, and Capca1_212912, M. lignano Mlig049925.g2, Mlig051885.g1, and Mlig041003.g1, P. australis g6004.t1 and g5063.t1 and R. norvegicus NP_077068.1 (rat ASIC1a) and respective mutants). Two-electrode voltage clamp experiments were performed 1 to 3 days after injection. The oocyte was placed in an RC-3Z bath (Warner Instruments) and bath solution (NaCl: 96 mM, KCl: 2 mM, CaCl2: 1.8 mM, MgCl2: 1 mM, Hepes: 5 mM; pH: 7.5) was perfused continuously and rapidly switched to bath solution containing peptide ligands via the VCS-8-pinch valve control perfusion system (Warner Instruments). […] Peptides were applied at varying concentrations between 30 nM and 100 μM for concentration-response experiments. […] Current recordings were analyzed in Clampfit 11.1 (Molecular Devices). […]

[6] = system: Octopus FaNaC; assay: Peptide-gated currents at oocytes expressing Octopus FaNaC; type: cell-based, Octopus bimaculoides; settings: peptides at 100 μM
From the text: (§4) Figure 1 Phylogenetic and experimental characterization of the FaNaC family.A, FaNaC branch from DEG/ENaC phylogeny (full phylogeny in Fig. S1). ∗Genes tested here. ∞Genes tested elsewhere. Genes in bold encode peptide-gated channels. aLRT support for key branches is shown. Blue background, broader FaNaC family; green background, annelid-specific branch of FaNaCs with diverse ligand sensitivity; pink background, Wamide-activated channels (WaNaCs). B, example peptide-gated currents at Xenopus oocytes expressing indicated genes. All peptide applications 100 μM, except for some at Capitella FaNaC: FMRFa, FLRPa, FLRFa, and FMKFa (3 μM); LFRYa (30 μM). The scale bars represent x, 10 s; y, 5 μA. C, mean (± SEM) normalized current response to different peptides (concentrations as in (B)) at oocytes expressing indicated channels. Lighter symbols are individual data points, n = 4 to 7. FaNaC, FMRFa-gated sodium channel; FMRFa, Phe-Met-Arg-Phe-amide.

[7] = system: Capitella FaNaC^52833; assay: Two-electrode voltage clamp of Xenopus oocytes expressing Capitella FaNaC 52833; type: cell-based, Capitella teleta; settings: WT; LFRYa 30 μM
Method: as §3

[8] = system: Crassostrea FaNaC; assay: Peptide-gated currents at oocytes expressing Crassostrea FaNaC; type: cell-based, Crassostrea gigas; settings: peptides at 100 μM
From the text: as §4

[9] = molecular target: Capitella teleta FaNaC^52833 (Capitella teleta)
[10] = molecular target: Malacoceros fuliginosus FaNaC^ON156825 (Malacoceros fuliginosus)
[11] = molecular target: Malacoceros fuliginosus FaNaC^ON156826 (Malacoceros fuliginosus)
[12] = molecular target: Aplysia kurodai FaNaC (FMRFa-gated sodium channel) (Aplysia kurodai)
[13] = molecular target: Aplysia kurodai FaNaC S184A (Aplysia kurodai)
[14] = molecular target: Capitella teleta WaNaC^212912 (Wamide-gated sodium channel) (Capitella teleta)
[15] = molecular target: Malacoceros fuliginosus WaNaC^ON156824 (Malacoceros fuliginosus)
[16] = molecular target: T4, rat ASIC1a (acid-sensing ion channel 1a) (rat) (UniProt P55926)
T4 sequence: T1 sequence (P55926 1-526)

[17] = molecular target: T5, rat ASIC1a S274A (rat) (UniProt P55926)
T5 sequence: T1 sequence (P55926 1-526) with S274A

KWGGNSRMW-NH2 [KWGGNSRMWa]
EC50 [1]: 0.34 ± 0.1 µM

FRRFa: synthetic FMRFa analog that enhances ASICs (FRRF-NH2)
enhancement of pH-gated currents [2]: 10 ± 3 fold
enhancement of pH-gated currents [3]: not ostensibly enhanced at all
enhancement of pH-gated currents [4]: 2 ± 0.3 fold

AWVGDKSLSW-NH2 [AWVGDKSLSWa]
AWVGDKSLSWa-gated currents ([5]; R255Q, R291N and R472Q mutations): abolished
EC50 ([5]; WT channel, Xenopus oocytes, n = 8, mean ± SEM, read-out: AWVGDKSLSWa EC50): 2 ± 0.2 µM

FMKFa: peptide encoded by the Octopus FMRFa propeptide (FMKF-NH2)
current amplitude relative to FMRFa [6]: larger currents than FMRFa

LFRYa: product of the RYamide propeptide from Capitella (LFRY-NH2)
current response to peptide [7]: small currents

FLRFa: peptide encoded by the Octopus FMRFa propeptide (FLRF-NH2)
current amplitude relative to FMRFa [6]: larger currents than FMRFa
current amplitude relative to FMRFa [8]: slightly larger currents than FMRFa

FMRF-NH2 [FMRFamide (Phe-Met-Arg-Phe-amide)]
EC50 of peptide-gated current, two-electrode voltage clamp on Xenopus oocytes [9]: 0.35 µM
EC50 of peptide-gated current, two-electrode voltage clamp on Xenopus oocytes [10]: 0.23 µM
EC50 of peptide-gated current, two-electrode voltage clamp on Xenopus oocytes [11]: 11 µM
EC50 of FMRFa-gated current, two-electrode voltage clamp on Xenopus oocytes [12]: 3.4 µM
I (3 μM)/I (30 μM) ratio of FMRFa potency (3 μM FMRFa-gated current amplitude/30 μM FMRFa-gated current amplitude) [12]: 0.64
EC50 of FMRFa-gated current, full concentration-response, two-electrode voltage clamp on Xenopus oocytes [13]: 30 µM

AWVGDKSLSW-NH2
EC50 of peptide-gated current, two-electrode voltage clamp on Xenopus oocytes [14]: 2 µM

KWGGNSRMW-NH2
EC50 of peptide-gated current, two-electrode voltage clamp on Xenopus oocytes [15]: 0.34 µM

FRRF-NH2 [FRRFa]
fold enhancement of desensitized pH 5.3-gated current by 50 μM FRRFa, two-electrode voltage clamp on Xenopus oocytes [16]: 10 fold
fold enhancement of desensitized pH 5.3-gated current by 50 μM FRRFa, two-electrode voltage clamp on Xenopus oocytes [17]: 2 fold
